The test has as its target E. coli RecQ helicase, wild type (E. coli, UniProt P15043 1-609). The test can be described thus: fluorescence polarisation.

Results on one molecule are retold here after article doi:10.1101/797431 (bioRxiv, 2019).

Sequence of E. coli RecQ helicase, wild type (P15043 whole entry): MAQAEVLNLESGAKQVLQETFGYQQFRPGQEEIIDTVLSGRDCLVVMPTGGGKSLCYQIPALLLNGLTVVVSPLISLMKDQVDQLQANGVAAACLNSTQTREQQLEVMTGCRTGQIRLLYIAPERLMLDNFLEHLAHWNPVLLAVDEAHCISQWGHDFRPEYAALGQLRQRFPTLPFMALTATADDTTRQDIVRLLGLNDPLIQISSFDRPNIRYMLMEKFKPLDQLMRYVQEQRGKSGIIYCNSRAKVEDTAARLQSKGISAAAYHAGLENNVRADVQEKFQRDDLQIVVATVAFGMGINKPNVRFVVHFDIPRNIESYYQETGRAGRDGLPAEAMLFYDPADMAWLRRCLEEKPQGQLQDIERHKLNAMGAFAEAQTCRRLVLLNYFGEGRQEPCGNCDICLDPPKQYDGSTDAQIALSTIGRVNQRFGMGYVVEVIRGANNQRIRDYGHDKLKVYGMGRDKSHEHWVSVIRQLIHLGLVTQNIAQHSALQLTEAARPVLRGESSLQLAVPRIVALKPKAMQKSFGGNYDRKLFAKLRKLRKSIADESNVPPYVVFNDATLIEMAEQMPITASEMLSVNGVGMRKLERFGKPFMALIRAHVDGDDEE

Consider MDFDDDIPF (fluorescein on the N-terminus) [N-terminally fluorescein-labeled SSB C-terminal peptide (Flu-MDFDDDIPF)], for which the binding result is given as “binds”.
